Reference: publication PMC9040721
pKd: −log10 of the molar value.

Experiments:
[1] = target: recombinant TRP120 tandem repeat domain, His-tagged (rTRP120-TR) (E. chaffeensis) (UniProt Q2GI62); test: SPR; Biacore T100, NTA sensor chip; His-tagged TRP120-FL, TRP120-TR or TRX (0.1 uM) immobilised; Fc-tagged Notch-1 LBR as analyte, 2-fold dilutions 800 nM to 25 nM; 25 C; 100 mM sodium phosphate pH 7.4, 400 mM NaCl, 40 uM EDTA; 1:1 Langmuir model
[2] = target: recombinant full-length TRP120, His-tagged (rTRP120-FL) (E. chaffeensis) (UniProt Q2GI62); test: as above

## human rNotch-1 Fc Chimera Protein, CF (R&D Systems); Fc-tagged Notch-1 ligand-binding region (LBR) (from UniProt P46531 19-2555) (Fc fusion)
[1]
  pKd: 6.92
[2]
  pKd: 7.00
